Laboratory results as given in patent US20140087995A1 (published 2014).
Numbered stars: 1 amine (or outer) side, 2 acyl side, 3 side chain; on linkers, the order of the positions; unused ones are H or OH. Bridge positions count the residues as written; N and C are the ends. Square brackets hold non-standard residues; d marks the D form. Side chains are listed from the residue outwards. Ends that are not written are not given here. * marks the point of attachment. C20 diacid = O=C(O)CCCCCCCCCCCCCCCCCCC(=O)*; γGlu = O=C(O)[C@H](CCC(=O)[*:2])N[*:1]

T1: human amylin receptor (Amylin 3(a) receptor: human calcitonin receptor co-expressed with RAMP-3) (human, UniProt P30988 25-474; O60896 24-148, limits assumed)
T1 construct: whole, on cells; Used as cell membranes prepared from the Amylin 3(a)/CRE-luc BHK cells (Assay V); the complex is called the human amylin receptor; also called hAmylin-R; hAmylinR
T1 sequence (looked up) 1: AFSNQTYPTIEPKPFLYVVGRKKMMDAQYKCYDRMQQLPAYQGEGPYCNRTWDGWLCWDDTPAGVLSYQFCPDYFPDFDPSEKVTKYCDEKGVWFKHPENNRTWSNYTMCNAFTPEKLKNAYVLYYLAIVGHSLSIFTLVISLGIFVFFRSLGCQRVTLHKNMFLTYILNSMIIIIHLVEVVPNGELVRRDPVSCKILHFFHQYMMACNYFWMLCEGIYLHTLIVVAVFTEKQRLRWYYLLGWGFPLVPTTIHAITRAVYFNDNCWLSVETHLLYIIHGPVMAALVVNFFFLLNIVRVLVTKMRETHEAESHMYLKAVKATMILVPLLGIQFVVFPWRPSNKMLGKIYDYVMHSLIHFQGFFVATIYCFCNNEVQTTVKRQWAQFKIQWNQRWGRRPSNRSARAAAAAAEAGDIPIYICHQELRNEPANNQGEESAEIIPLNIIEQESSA
T1 sequence (looked up) 2: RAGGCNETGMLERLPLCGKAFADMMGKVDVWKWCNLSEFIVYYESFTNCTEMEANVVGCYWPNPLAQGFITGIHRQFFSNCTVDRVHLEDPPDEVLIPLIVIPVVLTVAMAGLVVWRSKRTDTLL

B1: N^ε1-[(4S)-4-carboxy-4-(19-carboxynonadecanoylamino)butanoyl]-[Glu14,Arg17,Pro21,Pro27,His35]-h-amylin (peptide)
peptide: K([γGlu-C20 diacid])CNTATCATQRLAEFLRHSSPNFGAIPSSTNVGSHTY-NH2
modifications: disulfide 2-7; N-terminus assumed
SMILES: CC[C@H](C)[C@H](NC(=O)[C@H](C)NC(=O)CNC(=O)[C@H](Cc1ccccc1)NC(=O)[C@H](CC(N)=O)NC(=O)[C@@H]1CCCN1C(=O)[C@H](CO)NC(=O)[C@H](CO)NC(=O)[C@H](Cc1c[nH]cn1)NC(=O)[C@H](CCCNC(=N)N)NC(=O)[C@H](CC(C)C)NC(=O)[C@H](Cc1ccccc1)NC(=O)[C@H](CCC(=O)O)NC(=O)[C@H](C)NC(=O)[C@H](CC(C)C)NC(=O)[C@H](CCCNC(=N)N)NC(=O)[C@H](CCC(N)=O)NC(=O)[C@@H](NC(=O)[C@H](C)NC(=O)[C@@H]1CSSC[C@H](NC(=O)[C@@H](N)CCCCNC(=O)CC[C@H](NC(=O)CCCCCCCCCCCCCCCCCCC(=O)O)C(=O)O)C(=O)N[C@@H](CC(N)=O)C(=O)N[C@@H]([C@@H](C)O)C(=O)N[C@@H](C)C(=O)N[C@@H]([C@@H](C)O)C(=O)N1)[C@@H](C)O)C(=O)N1CCC[C@H]1C(=O)N[C@@H](CO)C(=O)N[C@@H](CO)C(=O)N[C@H](C(=O)N[C@@H](CC(N)=O)C(=O)N[C@H](C(=O)NCC(=O)N[C@@H](CO)C(=O)N[C@@H](Cc1c[nH]cn1)C(=O)N[C@H](C(=O)N[C@@H](Cc1ccc(O)cc1)C(N)=O)[C@@H](C)O)C(C)C)[C@@H](C)O
notes: modifications are with respect to human amylin
B2: N^ε1-[(4S)-4-carboxy-4-(19-carboxynonadecanoylamino)butanoyl]-[Glu14,Arg17,Pro21,Pro27,Pro34,Arg35]-h-amylin (peptide)
peptide: K([γGlu-C20 diacid])CNTATCATQRLAEFLRHSSPNFGAIPSSTNVGPRTY-NH2
modifications: disulfide 2-7; N-terminus assumed
SMILES: CC[C@H](C)[C@H](NC(=O)[C@H](C)NC(=O)CNC(=O)[C@H](Cc1ccccc1)NC(=O)[C@H](CC(N)=O)NC(=O)[C@@H]1CCCN1C(=O)[C@H](CO)NC(=O)[C@H](CO)NC(=O)[C@H](Cc1c[nH]cn1)NC(=O)[C@H](CCCNC(=N)N)NC(=O)[C@H](CC(C)C)NC(=O)[C@H](Cc1ccccc1)NC(=O)[C@H](CCC(=O)O)NC(=O)[C@H](C)NC(=O)[C@H](CC(C)C)NC(=O)[C@H](CCCNC(=N)N)NC(=O)[C@H](CCC(N)=O)NC(=O)[C@@H](NC(=O)[C@H](C)NC(=O)[C@@H]1CSSC[C@H](NC(=O)[C@@H](N)CCCCNC(=O)CC[C@H](NC(=O)CCCCCCCCCCCCCCCCCCC(=O)O)C(=O)O)C(=O)N[C@@H](CC(N)=O)C(=O)N[C@@H]([C@@H](C)O)C(=O)N[C@@H](C)C(=O)N[C@@H]([C@@H](C)O)C(=O)N1)[C@@H](C)O)C(=O)N1CCC[C@H]1C(=O)N[C@@H](CO)C(=O)N[C@@H](CO)C(=O)N[C@H](C(=O)N[C@@H](CC(N)=O)C(=O)N[C@H](C(=O)NCC(=O)N1CCC[C@H]1C(=O)N[C@@H](CCCNC(=N)N)C(=O)N[C@H](C(=O)N[C@@H](Cc1ccc(O)cc1)C(N)=O)[C@@H](C)O)C(C)C)[C@@H](C)O
notes: as for B1
B3: N^ε1-[(4S)-4-carboxy-4-(19-carboxynonadecanoylamino)butanoyl]-[Glu14,Arg17,Pro21,Pro27,Pro34,His35]-h-amylin (peptide)
peptide: K([γGlu-C20 diacid])CNTATCATQRLAEFLRHSSPNFGAIPSSTNVGPHTY-NH2
modifications: disulfide 2-7
notes: as for B1
B4: N^ε1-[(4S)-4-carboxy-4-(19-carboxynonadecanoylamino)butanoyl]-[His14,Arg17,Pro21,Pro27,Pro31,Pro34]-h-amylin (peptide)
peptide: K([γGlu-C20 diacid])CNTATCATQRLAHFLRHSSPNFGAIPSSTPVGPNTY-NH2
modifications: disulfide 2-7; N-terminus assumed
SMILES: CC[C@H](C)[C@H](NC(=O)[C@H](C)NC(=O)CNC(=O)[C@H](Cc1ccccc1)NC(=O)[C@H](CC(N)=O)NC(=O)[C@@H]1CCCN1C(=O)[C@H](CO)NC(=O)[C@H](CO)NC(=O)[C@H](Cc1c[nH]cn1)NC(=O)[C@H](CCCNC(=N)N)NC(=O)[C@H](CC(C)C)NC(=O)[C@H](Cc1ccccc1)NC(=O)[C@H](Cc1c[nH]cn1)NC(=O)[C@H](C)NC(=O)[C@H](CC(C)C)NC(=O)[C@H](CCCNC(=N)N)NC(=O)[C@H](CCC(N)=O)NC(=O)[C@@H](NC(=O)[C@H](C)NC(=O)[C@@H]1CSSC[C@H](NC(=O)[C@@H](N)CCCCNC(=O)CC[C@H](NC(=O)CCCCCCCCCCCCCCCCCCC(=O)O)C(=O)O)C(=O)N[C@@H](CC(N)=O)C(=O)N[C@@H]([C@@H](C)O)C(=O)N[C@@H](C)C(=O)N[C@@H]([C@@H](C)O)C(=O)N1)[C@@H](C)O)C(=O)N1CCC[C@H]1C(=O)N[C@@H](CO)C(=O)N[C@@H](CO)C(=O)N[C@H](C(=O)N1CCC[C@H]1C(=O)N[C@H](C(=O)NCC(=O)N1CCC[C@H]1C(=O)N[C@@H](CC(N)=O)C(=O)N[C@H](C(=O)N[C@@H](Cc1ccc(O)cc1)C(N)=O)[C@@H](C)O)C(C)C)[C@@H](C)O
notes: as for B1
B5: N^ε1-[(4S)-4-carboxy-4-[[(4S)-4-carboxy-4-(19-carboxynonadecanoylamino)butanoyl]amino]butanoyl]-[Arg17,Pro21,Pro27,Pro31,Pro34,Arg35]-h-amylin (peptide)
peptide: K([γGlu-γGlu-C20 diacid])CNTATCATQRLANFLRHSSPNFGAIPSSTPVGPRTY-NH2
modifications: disulfide 2-7; N-terminus assumed
SMILES: CC[C@H](C)[C@H](NC(=O)[C@H](C)NC(=O)CNC(=O)[C@H](Cc1ccccc1)NC(=O)[C@H](CC(N)=O)NC(=O)[C@@H]1CCCN1C(=O)[C@H](CO)NC(=O)[C@H](CO)NC(=O)[C@H](Cc1c[nH]cn1)NC(=O)[C@H](CCCNC(=N)N)NC(=O)[C@H](CC(C)C)NC(=O)[C@H](Cc1ccccc1)NC(=O)[C@H](CC(N)=O)NC(=O)[C@H](C)NC(=O)[C@H](CC(C)C)NC(=O)[C@H](CCCNC(=N)N)NC(=O)[C@H](CCC(N)=O)NC(=O)[C@@H](NC(=O)[C@H](C)NC(=O)[C@@H]1CSSC[C@H](NC(=O)[C@@H](N)CCCCNC(=O)CC[C@H](NC(=O)CC[C@H](NC(=O)CCCCCCCCCCCCCCCCCCC(=O)O)C(=O)O)C(=O)O)C(=O)N[C@@H](CC(N)=O)C(=O)N[C@@H]([C@@H](C)O)C(=O)N[C@@H](C)C(=O)N[C@@H]([C@@H](C)O)C(=O)N1)[C@@H](C)O)C(=O)N1CCC[C@H]1C(=O)N[C@@H](CO)C(=O)N[C@@H](CO)C(=O)N[C@H](C(=O)N1CCC[C@H]1C(=O)N[C@H](C(=O)NCC(=O)N1CCC[C@H]1C(=O)N[C@@H](CCCNC(=N)N)C(=O)N[C@H](C(=O)N[C@@H](Cc1ccc(O)cc1)C(N)=O)[C@@H](C)O)C(C)C)[C@@H](C)O
notes: as for B1
B6: N^ε1-[(4S)-4-carboxy-4-[[(4S)-4-carboxy-4-(19-carboxynonadecanoylamino)butanoyl]amino]butanoyl]-[Asp14,Arg17,Pro21,Pro27,Pro34,Arg35]-h-amylin (peptide)
peptide: K([γGlu-γGlu-C20 diacid])CNTATCATQRLADFLRHSSPNFGAIPSSTNVGPRTY-NH2
modifications: disulfide 2-7
notes: modifications are with respect to human amylin; also called compound 130
B7: N^ε1-[(4S)-4-carboxy-4-[[(4S)-4-carboxy-4-(19-carboxynonadecanoylamino)butanoyl]amino]butanoyl]-[Asp14,Arg17,Pro21,Pro27,Pro34,Glu35]-h-amylin (peptide)
peptide: K([γGlu-γGlu-C20 diacid])CNTATCATQRLADFLRHSSPNFGAIPSSTNVGPETY-NH2
modifications: disulfide 2-7
notes: as for B1
B8: N^ε1-[(4S)-4-carboxy-4-[[(4S)-4-carboxy-4-(19-carboxynonadecanoylamino)butanoyl]amino]butanoyl]-[D-Asp14,Arg17,Pro21,Pro27,Arg35]-h-amylin (peptide)
peptide: K([γGlu-γGlu-C20 diacid])CNTATCATQRLA[dD]FLRHSSPNFGAIPSSTNVGSRTY-NH2
modifications: disulfide 2-7; N-terminus assumed
SMILES: CC[C@H](C)[C@H](NC(=O)[C@H](C)NC(=O)CNC(=O)[C@H](Cc1ccccc1)NC(=O)[C@H](CC(N)=O)NC(=O)[C@@H]1CCCN1C(=O)[C@H](CO)NC(=O)[C@H](CO)NC(=O)[C@H](Cc1c[nH]cn1)NC(=O)[C@H](CCCNC(=N)N)NC(=O)[C@H](CC(C)C)NC(=O)[C@H](Cc1ccccc1)NC(=O)[C@@H](CC(=O)O)NC(=O)[C@H](C)NC(=O)[C@H](CC(C)C)NC(=O)[C@H](CCCNC(=N)N)NC(=O)[C@H](CCC(N)=O)NC(=O)[C@@H](NC(=O)[C@H](C)NC(=O)[C@@H]1CSSC[C@H](NC(=O)[C@@H](N)CCCCNC(=O)CC[C@H](NC(=O)CC[C@H](NC(=O)CCCCCCCCCCCCCCCCCCC(=O)O)C(=O)O)C(=O)O)C(=O)N[C@@H](CC(N)=O)C(=O)N[C@@H]([C@@H](C)O)C(=O)N[C@@H](C)C(=O)N[C@@H]([C@@H](C)O)C(=O)N1)[C@@H](C)O)C(=O)N1CCC[C@H]1C(=O)N[C@@H](CO)C(=O)N[C@@H](CO)C(=O)N[C@H](C(=O)N[C@@H](CC(N)=O)C(=O)N[C@H](C(=O)NCC(=O)N[C@@H](CO)C(=O)N[C@@H](CCCNC(=N)N)C(=O)N[C@H](C(=O)N[C@@H](Cc1ccc(O)cc1)C(N)=O)[C@@H](C)O)C(C)C)[C@@H](C)O

The binders below were run against T1, human amylin receptor (Amylin 3(a) …) (assay: SPA competition binding, displacement of 125I-rat amylin from membranes of BHK cells with human calcitonin receptor + RAMP-3 (Assay V)).
Procedure, shortened: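 Membranes from BHK Amylin 3(a)/CRE-luc cells (35 ng/μL final) were mixed with SPA beads and test compounds in 50 mM Hepes pH 7.4 with 1 mM CaCl2, 5 mM MgCl₂, 0.1% OA and 0.02% Tween20. Incubation ran 120 min at 25° C with shaking; IC₅₀ came from one-site competition fitting.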

Going from B1 to B2, the IC50 falls from 0.992 nM to 0.163 nM (6.1-fold). The second is the more potent here.

First: B3
Second: B4
The IC50 of the first is 2.2-fold higher: 0.179 nM for the first, 0.082 nM for the second.

Going from B5 to B6, the IC50 falls from 0.88 nM to 0.453 nM (1.9-fold). The second is the more potent here.

Going from B7 to B8, the IC50 rises from 0.172 nM to 0.365 nM (2.1-fold).
